Laboratory results reported in patent US20230265151A1, “GIP/GLP1 CO-AGONIST COMPOUNDS” (priority 2020, published 2023).
Where a chain is given by its changes, count along the chain named.

T1: human GIP receptor (human, UniProt P48546 22-466)
T1 construct: whole, on cells; also called hGIPR; human glucose-dependent insulinotropic polypeptide receptor
T1 sequence (looked up): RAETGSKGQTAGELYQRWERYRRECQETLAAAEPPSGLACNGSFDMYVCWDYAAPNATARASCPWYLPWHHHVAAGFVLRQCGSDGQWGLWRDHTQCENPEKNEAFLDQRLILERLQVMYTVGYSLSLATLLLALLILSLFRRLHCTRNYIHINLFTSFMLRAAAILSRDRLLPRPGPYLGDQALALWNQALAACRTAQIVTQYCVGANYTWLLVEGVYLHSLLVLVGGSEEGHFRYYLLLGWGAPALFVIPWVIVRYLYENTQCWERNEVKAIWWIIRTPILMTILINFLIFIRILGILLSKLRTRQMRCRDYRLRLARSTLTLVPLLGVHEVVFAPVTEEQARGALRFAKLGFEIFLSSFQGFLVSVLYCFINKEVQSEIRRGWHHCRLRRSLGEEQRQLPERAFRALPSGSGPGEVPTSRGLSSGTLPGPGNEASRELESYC

B1: Y-Aib-EGT-αMeF(2F)-TSDY-aMeS-I-αMeL-LD-Orn-K((2-[2-(2-Amino-ethoxy)-ethoxy]-acetyl)2-(γ-Glu)-CO-(CH2)12-CO2H)AQ-Aib-EFI-(D-Glu)-αMeY-LIEGGK((2-[2-(2-Amino-ethox … (peptide)
peptide: YXEGTXTSDYXIXLDXKAQXEFIXXLIEGGKSSGAPPPS
modifications: Aib2, αMeF(2F)6, αMeS11, αMeL13, Orn16, K17(Z1), Aib20, D-Glu24, αMeY25, K31(Z1), C-term NH2; Z1=AEEA2-(γ-Glu)-CO-(CH2)12-CO2H
B2: Y-Aib-EGT-αMeF(2F)-TSD-4Pal-SI-αMeL-LD-Orn-K((2-[2-(2-Amino-ethoxy)-ethoxy]-acetyl)2-(γ-Glu)-(4-(4-iodophenyl)butanoyl))AQ-Aib-EFI-(D-Glu)-αMeY-LIEGGK((2-[2-(2- … (peptide)
peptide: B1 peptide with Y10X, X11S
modifications: Aib2, αMeF(2F)6, 4Pal10, αMeL13, Orn16, K17(Z1), Aib20, D-Glu24, αMeY25, K31(Z1), C-term NH2; Z1=AEEA2-(γ-Glu)-(4-(4-iodophenyl)butanoyl)
B3: Y-Aib-EGT-αMeF(2F)-TSD-4Pal-Aib-I-αMeL-LD-Orn-K((2-[2-(2-Amino-ethoxy)-ethoxy]-acetyl)2-(γ-Glu)-CO-(CH2)10-CH3)AQ-Aib-EFI-(D-Glu)-αMeY-LIK((2-[2-(2-Amino-ethoxy … (peptide)
peptide: B1 peptide with Y10X, E28K, K31P
modifications: Aib2, αMeF(2F)6, 4Pal10, Aib11, αMeL13, Orn16, K17(Z1), Aib20, D-Glu24, αMeY25, K28(Z1), C-term NH2; Z1=AEEA2-(γ-Glu)-CO-(CH2)10-CH3
B4: Y-Aib-EGT-αMeF(2F)-TSD-Nle-SI-αMeL-LD-Orn-K((2-[2-(2-Amino-ethoxy)-ethoxy]-acetyl)2-(γ-Glu)-CO-(CH2)12-CO2H)AQ-Aib-EFI-(D-Glu)-αMeY-LIEGGK((2-[2-(2-Amino-ethoxy … (peptide)
peptide: B1 peptide with Y10X, X11S
modifications: Aib2, αMeF(2F)6, Nle10, αMeL13, Orn16, K17(Z1), Aib20, D-Glu24, αMeY25, K31(Z1), C-term NH2; Z1=AEEA2-(γ-Glu)-CO-(CH2)12-CO2H
B5: Y-Aib-EGT-αMeF(2F)-TSD-Bip-SI-αMeL-LD-Orn-K((2-[2-(2-Amino-ethoxy)-ethoxy]-acetyl)2-(γ-Glu)-CO-(CH2)12-CO2H)AQ-Aib-EFI-(D-Glu)-αMeY-LIEGGK((2-[2-(2-Amino-ethoxy … (peptide)
peptide: B1 peptide with Y10X, X11S
modifications: Aib2, αMeF(2F)6, Bip10, αMeL13, Orn16, K17(Z1), Aib20, D-Glu24, αMeY25, K31(Z1), C-term NH2; Z1=AEEA2-(γ-Glu)-CO-(CH2)12-CO2H
B6: Y-Aib-EGT-αMeF(2F)-TSDK((2-[2-(2-Amino-ethoxy)-ethoxy]-acetyl)2-(γ-Glu)-CO-(CH2)10-CH3)SI-αMeL-LD-Orn-K((2-[2-(2-Amino-ethoxy)-ethoxy]-acetyl)2-(γ-Glu)-CO-(CH2) … (peptide)
peptide: B1 peptide with Y10K, X11S, F22X, K31P
modifications: Aib2, αMeF(2F)6, K10(Z1), αMeL13, Orn16, K17(Z1), Aib20, αMeF22, D-Glu24, αMeY25, C-term NH2; Z1=AEEA2-(γ-Glu)-CO-(CH2)10-CH3
B7: Y-Aib-EGT-αMeF(2F)-TSD-4Pal-SI-αMeL-LD-Orn-K((2-[2-(2-Amino-ethoxy)-ethoxy]-acetyl)2-(γ-Glu)-CO-(CH2)10-CH3)AQ-Aib-Orn-FI-(D-Glu)-αMeY-LIK((2-[2-(2-Amino-ethoxy … (peptide)
peptide: YXEGTXTSDXSIXLDXKAQXXFIXXLIKGGPSSGAPPPS
modifications: Aib2, αMeF(2F)6, 4Pal10, αMeL13, Orn16, K17(Z1), Aib20, Orn21, D-Glu24, αMeY25, K28(Z1), C-term NH2; Z1=AEEA2-(γ-Glu)-CO-(CH2)10-CH3
B8: Y-Aib-EGT-αMeF(2F)-TSD-4Pal-SI-αMeL-LD-Orn-K((2-[2-(2-Amino-ethoxy)-ethoxy]-acetyl)2-(γ-Glu)-CO-(CH2)12-CO2H)AQ-Aib-E-3,5FPhe-I-(D-Glu)-αMeY-LIEGGK((2-[2-(2-Ami … (peptide)
peptide: B1 peptide with Y10X, X11S, F22X
modifications: Aib2, αMeF(2F)6, 4Pal10, αMeL13, Orn16, K17(Z1), Aib20, 3,5FPhe22, D-Glu24, αMeY25, K31(Z1), C-term NH2; Z1=AEEA2-(γ-Glu)-CO-(CH2)12-CO2H
B9: Y-Aib-EGT-αMeF(2F)-TSD-4Pal-SI-αMeL-LD-Orn-K((2-[2-(2-Amino-ethoxy)-ethoxy]-acetyl)2-(γ-Glu)-CO-(CH2)10-CH3)AQ-Aib-K((2-[2-(2-Amino-ethoxy)-ethoxy]-acetyl)2-(γ- … (peptide)
peptide: B7 peptide with X21K, K28X
modifications: Aib2, αMeF(2F)6, 4Pal10, αMeL13, Orn16, K17(Z1), Aib20, K21(Z1), D-Glu24, αMeY25, Orn28, C-term NH2; Z1=AEEA2-(γ-Glu)-CO-(CH2)10-CH3
B10: Y-Aib-EGT-αMeF(2F)-TSD-2Nal-SI-αMeL-LD-Orn-K((2-[2-(2-Amino-ethoxy)-ethoxy]-acetyl)2-(γ-Glu)-CO-(CH2)12-CO2H)AQ-Aib-EFI-(D-Glu)-αMeY-LIEGGK((2-[2-(2-Amino-ethox … (peptide)
peptide: B1 peptide with Y10X, X11S
modifications: Aib2, αMeF(2F)6, 2Nal10, αMeL13, Orn16, K17(Z1), Aib20, D-Glu24, αMeY25, K31(Z1), C-term NH2; Z1=AEEA2-(γ-Glu)-CO-(CH2)12-CO2H

Biological target: T2, human glucagon receptor (human, UniProt P47871 26-477)
T2 construct: whole, on cells; also called hGCGR; hGcgR
T2 sequence (P47871 26-477): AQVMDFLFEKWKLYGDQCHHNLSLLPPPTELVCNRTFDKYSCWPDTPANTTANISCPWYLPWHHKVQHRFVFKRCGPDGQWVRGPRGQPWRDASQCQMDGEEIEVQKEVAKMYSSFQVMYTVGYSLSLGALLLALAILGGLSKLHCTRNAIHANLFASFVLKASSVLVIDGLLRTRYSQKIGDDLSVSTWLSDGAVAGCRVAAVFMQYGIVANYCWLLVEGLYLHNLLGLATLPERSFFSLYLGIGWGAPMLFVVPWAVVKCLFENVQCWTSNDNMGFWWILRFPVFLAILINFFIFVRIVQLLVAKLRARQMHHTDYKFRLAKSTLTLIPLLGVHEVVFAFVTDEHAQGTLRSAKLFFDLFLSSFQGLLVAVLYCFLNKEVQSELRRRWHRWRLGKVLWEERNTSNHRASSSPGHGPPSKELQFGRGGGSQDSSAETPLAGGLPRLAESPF
Assay: SPA competition vs [125I]-Gcg, hGcgR membranes
Experimental: The binding buffer contains 25 mM 4-(2-hydroxyethyl)-1-piperazineethanesulfonic acid (HEPES), pH 7.4, 2.5 mM CaCl₂, 1 mM MgCh, 0.1% (w/v) bacitracin (Research Products), 0.003% (w/v) Polyoxyethylenesorbitan monolaurate (TWEEN®-20), and Roche Complete™ Protease Inhibitors without EDTA. […] Plates are sealed and mixed on a plate shaker (setting 6) for 1 minute and read with a PerkinElmer Trilux MicroBeta® scintillation counter after 12 hours of incubation/settling time at room temperature.
Data are analyzed using four-parameter (curve maximum, curve minimum, IC₅₀, Hill slope) nonlinear regression routines (Genedata Screener, version 12.0.4, Genedata AG, Basal, Switzerland). […] Values for Kᵢ are reported as the geometric mean, with error expressed as the standard error of the mean (SEM) and n is equal to the number of independent replicates (determined in assays performed on different days).

Binder	Ki
B1	196 nM
B2	711 nM
B3	75.5 nM
B4	737 nM
B5	299 nM
B6	23.1 nM
B7	93.3 nM
B8	4290 nM
B9	14.3 nM
B10	114 nM

Biological target: T3, human GLP-1 receptor (human, UniProt P43220 24-463)
T3 construct: whole, on cells; also called hGLP-1R; human glucagon-like peptide-1 receptor
Assay: SPA competition vs [125I]-GLP-1, hGLP-1R membranes
How it was run: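 Competition binding in 25 mM HEPES pH 7.4, 2.5 mM CaCl₂, 1 mM MgCl₂, 0.1% bacitracin, 0.003% TWEEN-20, EDTA-free protease inhibitors. IC₅₀ from four-parameter nonlinear fit; Kᵢ given as geometric mean ± SEM, n = independent replicates on different days.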

Binder	Ki
B1	1.21 nM
B2	0.471 nM
B3	0.325 nM
B4	0.872 nM
B5	5.17 nM
B6	0.211 nM
B7	0.101 nM
B8	1.05 nM
B9	0.119 nM
B10	4.35 nM

Biological target: T1, human GIP receptor
Assay: SPA competition vs [125I]-GIP, hGIPR membranes

Binder	Ki
B1	0.0573 nM
B2	0.0629 nM
B3	0.0195 nM
B4	0.11 nM
B5	0.252 nM
B6	0.022 nM
B7	0.0215 nM
B8	0.121 nM
B9	0.0131 nM
B10	0.297 nM
